# Results reported in US20160024159A1.
# Tests used:
# Test in all cases: cell-based or functional assay
# [1] = molecular target: TTX-sensitive Nav channels in mouse DRG neurons
# [2] = molecular target: human voltage-gated sodium channel Nav1.7 (human) (UniProt Q15858)
# [3] = molecular target: human voltage-gated sodium channel Nav1.3 (human) (UniProt Q9NY46)
# [4] = molecular target: human voltage-gated sodium channel Nav1.4 (human) (UniProt P35499)
# [5] = molecular target: human voltage-gated sodium channel Nav1.5 (human) (UniProt Q14524)
# [6] = molecular target: human Nav1.7 voltage-gated sodium channel (human) (UniProt Q15858)
# human Nav1.7 voltage-gated sodium channel (human), sequence (Q15858 whole entry): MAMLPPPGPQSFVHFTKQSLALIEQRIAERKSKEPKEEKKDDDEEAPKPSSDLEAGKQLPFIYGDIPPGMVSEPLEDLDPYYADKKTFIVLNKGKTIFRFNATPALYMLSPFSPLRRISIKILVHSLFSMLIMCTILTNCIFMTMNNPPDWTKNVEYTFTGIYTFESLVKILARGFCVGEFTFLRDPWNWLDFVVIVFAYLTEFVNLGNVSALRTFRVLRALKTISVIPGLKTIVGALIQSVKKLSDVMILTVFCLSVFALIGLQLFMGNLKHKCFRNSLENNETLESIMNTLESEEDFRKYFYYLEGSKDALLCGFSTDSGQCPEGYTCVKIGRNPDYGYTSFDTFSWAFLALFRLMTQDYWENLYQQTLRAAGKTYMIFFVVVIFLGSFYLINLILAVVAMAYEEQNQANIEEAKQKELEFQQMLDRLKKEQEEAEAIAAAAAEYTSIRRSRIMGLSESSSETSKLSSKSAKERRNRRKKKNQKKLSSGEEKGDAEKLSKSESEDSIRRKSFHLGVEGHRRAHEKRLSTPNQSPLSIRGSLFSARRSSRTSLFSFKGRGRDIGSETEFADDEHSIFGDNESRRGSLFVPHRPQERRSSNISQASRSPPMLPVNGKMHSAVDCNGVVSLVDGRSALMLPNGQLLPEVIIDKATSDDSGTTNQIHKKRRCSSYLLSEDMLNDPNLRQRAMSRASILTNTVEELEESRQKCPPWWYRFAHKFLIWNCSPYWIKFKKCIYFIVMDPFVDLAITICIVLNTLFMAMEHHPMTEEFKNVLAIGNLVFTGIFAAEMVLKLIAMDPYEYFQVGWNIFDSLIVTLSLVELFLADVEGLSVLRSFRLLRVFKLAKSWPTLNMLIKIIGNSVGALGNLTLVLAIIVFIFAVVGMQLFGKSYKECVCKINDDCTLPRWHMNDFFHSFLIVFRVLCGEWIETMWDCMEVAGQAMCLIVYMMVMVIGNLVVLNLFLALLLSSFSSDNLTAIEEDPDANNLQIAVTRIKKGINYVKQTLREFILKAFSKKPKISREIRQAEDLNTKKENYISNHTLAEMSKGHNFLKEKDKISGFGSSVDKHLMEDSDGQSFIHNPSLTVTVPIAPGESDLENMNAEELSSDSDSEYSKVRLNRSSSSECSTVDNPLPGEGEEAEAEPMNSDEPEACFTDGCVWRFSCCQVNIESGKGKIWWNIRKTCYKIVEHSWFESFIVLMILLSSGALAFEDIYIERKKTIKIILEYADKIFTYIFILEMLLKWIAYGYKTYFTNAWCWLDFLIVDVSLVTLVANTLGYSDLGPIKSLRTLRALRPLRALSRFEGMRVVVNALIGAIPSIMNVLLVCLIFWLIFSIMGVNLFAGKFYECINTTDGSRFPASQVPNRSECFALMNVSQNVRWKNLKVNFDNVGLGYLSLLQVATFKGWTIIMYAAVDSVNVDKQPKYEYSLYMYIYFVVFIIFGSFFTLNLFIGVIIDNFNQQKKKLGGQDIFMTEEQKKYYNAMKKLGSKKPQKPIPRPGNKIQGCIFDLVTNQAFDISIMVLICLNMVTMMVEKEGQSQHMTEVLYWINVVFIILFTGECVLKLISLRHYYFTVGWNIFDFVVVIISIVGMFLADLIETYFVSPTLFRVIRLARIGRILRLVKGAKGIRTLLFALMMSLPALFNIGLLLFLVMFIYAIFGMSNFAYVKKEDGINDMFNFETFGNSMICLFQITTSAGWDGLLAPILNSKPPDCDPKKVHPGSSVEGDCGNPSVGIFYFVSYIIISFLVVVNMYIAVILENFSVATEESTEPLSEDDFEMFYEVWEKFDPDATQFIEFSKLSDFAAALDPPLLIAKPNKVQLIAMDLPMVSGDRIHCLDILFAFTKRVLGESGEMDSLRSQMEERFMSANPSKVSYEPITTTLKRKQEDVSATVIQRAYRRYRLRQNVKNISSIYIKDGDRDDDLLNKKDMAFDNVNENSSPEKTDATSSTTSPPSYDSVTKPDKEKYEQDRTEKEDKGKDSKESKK
# human voltage-gated sodium channel Nav1.7 (human), sequence (Q15858 whole entry): as above
# human voltage-gated sodium channel Nav1.4 (human), sequence (P35499 whole entry): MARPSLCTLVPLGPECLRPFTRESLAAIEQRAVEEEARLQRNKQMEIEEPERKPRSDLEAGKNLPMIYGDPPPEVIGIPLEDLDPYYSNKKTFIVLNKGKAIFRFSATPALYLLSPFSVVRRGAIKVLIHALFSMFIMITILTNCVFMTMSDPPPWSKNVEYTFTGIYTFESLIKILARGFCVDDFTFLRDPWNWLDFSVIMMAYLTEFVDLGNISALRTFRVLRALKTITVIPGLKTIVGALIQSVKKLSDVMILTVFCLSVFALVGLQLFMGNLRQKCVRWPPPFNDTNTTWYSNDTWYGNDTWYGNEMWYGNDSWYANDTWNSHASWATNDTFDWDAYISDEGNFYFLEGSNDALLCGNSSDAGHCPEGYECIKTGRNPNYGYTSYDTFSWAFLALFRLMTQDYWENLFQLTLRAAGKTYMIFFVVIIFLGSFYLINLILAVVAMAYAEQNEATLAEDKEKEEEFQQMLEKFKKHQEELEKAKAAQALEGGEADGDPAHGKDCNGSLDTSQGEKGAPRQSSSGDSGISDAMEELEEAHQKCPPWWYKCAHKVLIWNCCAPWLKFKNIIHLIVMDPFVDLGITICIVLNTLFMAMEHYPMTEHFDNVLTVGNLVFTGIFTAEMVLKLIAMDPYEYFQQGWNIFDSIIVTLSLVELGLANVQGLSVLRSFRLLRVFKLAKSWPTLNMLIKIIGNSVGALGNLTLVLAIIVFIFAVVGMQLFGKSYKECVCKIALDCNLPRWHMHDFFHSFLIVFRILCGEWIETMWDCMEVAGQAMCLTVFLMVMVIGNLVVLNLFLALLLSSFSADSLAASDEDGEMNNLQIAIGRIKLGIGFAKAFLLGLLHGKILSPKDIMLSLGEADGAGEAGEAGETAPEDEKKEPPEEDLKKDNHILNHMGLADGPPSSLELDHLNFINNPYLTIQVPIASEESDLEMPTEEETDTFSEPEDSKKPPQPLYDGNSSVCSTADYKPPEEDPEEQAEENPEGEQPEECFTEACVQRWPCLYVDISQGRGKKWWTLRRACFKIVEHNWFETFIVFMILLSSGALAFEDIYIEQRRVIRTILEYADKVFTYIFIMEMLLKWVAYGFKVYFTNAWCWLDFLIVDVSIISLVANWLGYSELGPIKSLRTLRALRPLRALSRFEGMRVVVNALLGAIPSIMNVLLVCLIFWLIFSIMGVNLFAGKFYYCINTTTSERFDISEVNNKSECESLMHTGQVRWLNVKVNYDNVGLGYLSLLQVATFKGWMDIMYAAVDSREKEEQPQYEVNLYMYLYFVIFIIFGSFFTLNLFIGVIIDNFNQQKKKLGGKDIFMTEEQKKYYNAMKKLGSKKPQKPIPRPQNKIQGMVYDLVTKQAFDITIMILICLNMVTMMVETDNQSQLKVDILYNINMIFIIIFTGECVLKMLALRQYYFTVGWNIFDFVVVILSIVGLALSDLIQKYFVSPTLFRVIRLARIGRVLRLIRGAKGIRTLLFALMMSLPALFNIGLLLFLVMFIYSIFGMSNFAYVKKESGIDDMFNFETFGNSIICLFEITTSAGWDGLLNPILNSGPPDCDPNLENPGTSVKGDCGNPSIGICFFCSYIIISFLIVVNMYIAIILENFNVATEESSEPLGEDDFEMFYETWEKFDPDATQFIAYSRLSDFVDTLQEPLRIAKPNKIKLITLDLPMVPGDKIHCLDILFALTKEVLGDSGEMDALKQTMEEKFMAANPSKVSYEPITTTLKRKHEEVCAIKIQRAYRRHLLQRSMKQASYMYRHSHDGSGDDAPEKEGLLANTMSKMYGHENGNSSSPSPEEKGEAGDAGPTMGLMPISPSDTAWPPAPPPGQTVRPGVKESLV
substance,measurement,setting,value
"Pra-[Nle6;Glu12,28]JzTx-V(1-29) (peptide)","WCPC Mean IC50, partially inactivated",[1],144 nM
CyA-[Nle6; Val8; Lys17; Glu28]JzTx-V(1-29) (peptide),PX hNav1.7 Tonic IC50,[2],26.6 nM
[Nle6;Pra11;Glu20;Trp29]JzTx-V(1-29) (peptide),"IC50, IonWorks Quattro electrophysiology",[2],0.026 µM
[Nva7;Glu20;Tyr28]JzTx-V(1-29) (peptide),"IC50, IonWorks Quattro electrophysiology",[3],> 7 µM
same,"IC50, IonWorks Quattro electrophysiology",[2],4.5 µM
same,"IC50, IonWorks Quattro electrophysiology",[4],> 7 µM
same,"IC50, IonWorks Quattro electrophysiology",[5],> 7 µM
Pra-[Nle6;5-BrW24;Glu28]JzTx-V(1-29) (peptide),"WCPC Mean IC50, partially inactivated",[6],0.13 nM
same,"WCPC Mean IC50, partially inactivated",[1],3.8 nM
[Cit7;Glu20;Tyr28]JzTx-V(1-29) (peptide),"IC50, IonWorks Quattro electrophysiology",[3],> 7 µM
same,"IC50, IonWorks Quattro electrophysiology",[2],5.8 µM
same,"IC50, IonWorks Quattro electrophysiology",[4],> 7 µM
same,"IC50, IonWorks Quattro electrophysiology",[5],> 7 µM
"Pra-[Nle6;Glu14,28]JzTx-V(1-29) (peptide)","WCPC Mean IC50, partially inactivated",[1],99.8 nM
